Source: the supplement of paper PMC10126150
± gives the standard deviation of the averaged measurements.

tested on: ATP; experiment: switch fluorescence ratio, 500 uM ATP over buffer (Cy3 cluster intensity, sum of 5 cycles each) (fold (ratio)); higher = stronger signal-on switching upon ATP binding; sequences stand for … in TCGTCGGCAGCGTCAGATGTGTATAAGAGACAGTTTTTTTTTTTTTTTTTTTTTTTTT…TC; conditions: aptamer strand: ATP DNA aptamer (quencher-CACCTGGGGGAGTATTGCGGAGGAAGG + anchor), 100 nM annealed; ATP concentration: 500 uM
Outline: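 Values give the fluorescence ratio for each switch-domain sequence, averaged from per-cluster ratios of summed target-cycle to summed buffer-cycle Cy3 intensity. The Cy3-labelled switching-strand clusters sat on a modified Illumina MiSeq flow-cell, were annealed to 100 nM quencher-labelled ATP aptamer, and were imaged in selection buffer, then after 15 min with 500 uM ATP at 22 °C. Five cycles ran with NaOH stripping and re-annealing between them, and clusters outside 100-1000 RFU were excluded.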
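Also: ATP exposure 15 min at 22 °C before imaging.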

Sequence	switch fluorescence ratio
GTTGGGTCCC	0.9857 ± 0.0069
GTTGGTAGGA	1.01 ± 0.033
GTTGGTATGT	0.994 ± 0.018
GTTGGTATTG	1 ± 0.021
GTTGGTGTAT	0.9913 ± 0.009
GTTGGTTACA	1.008 ± 0.0065
GTTGGTTCCG	0.996 ± 0.022
GTTGGTTCGT	1.02 ± 0.034
GTTGGTTGTT	0.985 ± 0.023
GTTGTAAGGG	0.998 ± 0.04
GTTGTAATCA	0.98 ± 0.024
GTTGTACGAG	0.9824 ± 0.0058
GTTGTACGGG	1.02 ± 0.047
GTTGTAGCCA	0.966 ± 0.043
GTTGTAGGTT	0.966 ± 0.023
GTTGTATACT	0.993 ± 0.076
GTTGTATAGA	1 ± 0.019
GTTGTATGTT	1.02 ± 0.039
GTTGTCAGGG	0.982 ± 0.012
GTTGTGAGGA	0.984 ± 0.036
GTTGTGAGGG	0.981 ± 0.018
GTTGTGATAG	1.01 ± 0.021
GTTGTGATTT	0.953 ± 0.032
GTTGTGCCTG	1.01 ± 0.041
GTTGTGCTGA	1.02 ± 0.0085

Sequence	switch fluorescence ratio
GTTGTGTTGT	0.979 ± 0.028
GTTGTGTTTT	1.01 ± 0.026
GTTGTTAAGG	0.996 ± 0.014
GTTGTTAATT	1.01 ± 0.029
GTTGTTGAGT	0.997 ± 0.0024
GTTGTTGCTC	0.987 ± 0.04
GTTGTTGGAA	0.963 ± 0.049
GTTGTTGGGT	0.983 ± 0.034
GTTGTTTTCG	0.987 ± 0.039
GTTGTTTTGT	0.985 ± 0.021
GTTGTTTTTA	0.987 ± 0.01
GTTGTTTTTG	1.02 ± 0.028
GTTGTTTTTT	0.988 ± 0.036
GTTTAAAAAA	1 ± 0.021
GTTTAAACTC	0.961 ± 0.022
GTTTAAACTT	0.996 ± 0.039
GTTTAAAGTC	0.989 ± 0.059
GTTTAAAGTG	1 ± 0.026
GTTTAAGTTT	0.996 ± 0.022
GTTTAATCCG	0.975 ± 0.013
GTTTAATGGT	0.9852 ± 0.009
GTTTAATTTA	1.01 ± 0.03
GTTTAGAGTC	1 ± 0.037
GTTTAGGAGG	0.989 ± 0.022
GTTTAGTTTG	0.992 ± 0.044

Sequence	switch fluorescence ratio
GTTTATAAAC	0.973 ± 0.064
GTTTATAATG	0.986 ± 0.02
GTTTATGAGC	1 ± 0.022
GTTTATGCAT	1 ± 0.022
GTTTATTAAA	1.04 ± 0.012
GTTTATTATA	1 ± 0.011
GTTTATTGGC	0.995 ± 0.019
GTTTATTTTT	0.997 ± 0.023
GTTTCAACTG	1 ± 0.12
GTTTCAGGGG	1.09 ± 0.015
GTTTCATATG	1.03 ± 0.047
GTTTCCAACT	1.01 ± 0.021
GTTTCCGTTT	0.973 ± 0.017
GTTTCGAAAA	0.9855 ± 0.0074
GTTTCGTAAT	1.084 ± 0.0038
GTTTCGTATA	0.997 ± 0.044
GTTTCGTGAG	0.994 ± 0.054
GTTTCTTAGC	0.998 ± 0.081
GTTTCTTTCG	1.01 ± 0.067
GTTTGAACGC	1.08 ± 0.018
GTTTGACACT	0.99 ± 0.042
GTTTGAGGGG	0.992 ± 0.012
GTTTGATAGA	0.984 ± 0.027
GTTTGATGTC	1 ± 0.1
GTTTGCAAAT	0.991 ± 0.034

Sequence	switch fluorescence ratio
GTTTGCAGCA	1.03 ± 0.027
GTTTGCAGGA	0.995 ± 0.027
GTTTGCGTTA	0.962 ± 0.05
GTTTGGACAG	1.007 ± 0.01
GTTTGGCGT	1.03 ± 0.045
GTTTGGCGTA	0.967 ± 0.015
GTTTGGGACG	0.9905 ± 0.0082
GTTTGGGGAG	0.977 ± 0.018
GTTTGGGGGA	0.9909 ± 0.0052
GTTTGGGGGC	1.03 ± 0.043
GTTTGGGTAA	0.99 ± 0.037
GTTTGGGTCA	1.03 ± 0.011
GTTTGGTATT	1.01 ± 0.04
GTTTGGTGTG	0.975 ± 0.033
GTTTGTACTC	0.997 ± 0.037
GTTTGTAGAG	0.993 ± 0.026
GTTTGTAGGC	0.9641 ± 0.0017
GTTTGTGGGA	0.974 ± 0.019
GTTTGTGTAC	1.11 ± 0.075
GTTTGTTGAG	0.979 ± 0.025
GTTTGTTGGA	0.967 ± 0.03
GTTTGTTGGT	0.977 ± 0.013
GTTTTAAAGT	1.02 ± 0.017
GTTTTAACGG	1.02 ± 0.029
GTTTTAATGG	1.01 ± 0.025

Sequence	switch fluorescence ratio
GTTTTACATT	1.02 ± 0.021
GTTTTAGAGC	1.05 ± 0.025
GTTTTAGATA	0.993 ± 0.031
GTTTTAGCTG	0.986 ± 0.059
GTTTTAGGGT	1 ± 0.031
GTTTTAGGTT	0.993 ± 0.023
GTTTTAGTCA	0.9989 ± 0.001
GTTTTAGTCC	1.01 ± 0.025
GTTTTATCCT	1.05 ± 0.011
GTTTTATGCT	1.01 ± 0.017
GTTTTCAAGT	0.979 ± 0.039
GTTTTCACGT	1.01 ± 0.013
GTTTTCCGGA	0.996 ± 0.05
GTTTTCGGGC	0.987 ± 0.067
GTTTTCGTTT	0.9711 ± 0.0058
GTTTTGAAAA	0.949 ± 0.019
GTTTTGACAC	1.02 ± 0.013
GTTTTGAGGT	1.02 ± 0.028
GTTTTGCTGT	0.986 ± 0.046
GTTTTGGGGT	0.986 ± 0.013
GTTTTGGTTG	1.01 ± 0.027
GTTTTGGTTT	0.986 ± 0.024
GTTTTGTGGA	1.01 ± 0.007
GTTTTGTGGT	0.954 ± 0.021
GTTTTTAAGT	1.03 ± 0.04

Sequence	switch fluorescence ratio
GTTTTTACGG	1.04 ± 0.0059
GTTTTTAGGC	1.02 ± 0.094
GTTTTTAGTG	0.983 ± 0.038
GTTTTTCCCC	1.11 ± 0.14
GTTTTTCGCC	1 ± 0.02
GTTTTTGAGG	0.977 ± 0.028
GTTTTTGCCA	1.01 ± 0.016
GTTTTTGGAG	0.98219 ± 0.00097
GTTTTTGTGA	0.9693 ± 0.0079
GTTTTTGTGG	0.992 ± 0.01
GTTTTTGTTT	1 ± 0.033
GTTTTTTAAC	1.01 ± 0.04
GTTTTTTAGA	0.9728 ± 0.0018
GTTTTTTCCG	0.992 ± 0.012
GTTTTTTCGG	0.993 ± 0.023
GTTTTTTGAT	1.008 ± 0.0042
GTTTTTTGGT	0.982 ± 0.03
GTTTTTTTAA	1 ± 0.034
GTTTTTTTAG	1 ± 0.033
GTTTTTTTCG	0.9829 ± 0.007
GTTTTTTTT	1.05 ± 0.069
TAAAAAACGG	0.954 ± 0.042
TAAAAAGCGA	0.987 ± 0.012
TAAAAAGCGC	1.03 ± 0.03
TAAAAAGGTA	1.02 ± 0.028

Sequence	switch fluorescence ratio
TAAAAAGTAC	1.02 ± 0.027
TAAAAAGTAG	0.992 ± 0.024
TAAAAATACA	1.1 ± 0.13
TAAAAATCCC	1.16 ± 0.083
TAAAAATCTT	1.01 ± 0.041
TAAAAATGAG	1.014 ± 0.0069
TAAAAATTGG	0.997 ± 0.014
TAAAACAGCG	1.01 ± 0.012
TAAAACGCTC	1.07 ± 0.073
TAAAACTCCA	1.03 ± 0.038
TAAAAGAGGA	0.9974 ± 0.0058
TAAAAGAGGG	0.9558 ± 0.0023
TAAAAGATAG	1 ± 0.019
TAAAAGGGCT	0.999 ± 0.011
TAAAAGGGTA	1 ± 0.019
TAAAAGGGTT	1 ± 0.031
TAAAAGTATT	1.03 ± 0.068
TAAAAGTCGG	1.01 ± 0.019
TAAAAGTG	0.961 ± 0.05
TAAAAGTTTA	1.04 ± 0.016
TAAAAGTTTG	0.996 ± 0.034
TAAAATAGGG	1.01 ± 0.018
TAAAATGTTC	0.988 ± 0.048
TAAAATTGAG	1 ± 0.024
TAAAATTGTA	0.9917 ± 0.0035

Sequence	switch fluorescence ratio
TAAACCGGTT	0.984 ± 0.027
TAAACGAAGT	0.956 ± 0.054
TAAAGAATTT	0.98 ± 0.032
TAAAGAGGGG	1 ± 0.021
TAAAGATGG	0.995 ± 0.027
TAAAGCTTAA	1.05 ± 0.041
TAAAGGATG	0.968 ± 0.019
TAAAGGCACG	1.03 ± 0.07
TAAAGGCGGG	0.987 ± 0.023
TAAAGGCGTG	0.96 ± 0.022
TAAAGGGCTT	1.02 ± 0.018
TAAAGGGGAG	1.01 ± 0.019
TAAAGGGTAA	0.9888 ± 0.0044
TAAAGGGTGG	0.987 ± 0.032
TAAAGGTTCG	0.9618 ± 0.009
TAAAGGTTCT	1.02 ± 0.03
TAAAGTAAAT	0.9668 ± 0.0028
TAAAGTGCAT	1.036 ± 0.0066
TAAAGTGCGA	0.993 ± 0.035
TAAATAAATT	1.01 ± 0.044
TAAATAAGTT	1.004 ± 0.0097
TAAATACTCG	1.25 ± 0.044
TAAATCCTTT	1 ± 0.053
TAAATCGGCA	1.004 ± 0.0021
TAAATCGGCG	0.989 ± 0.023
